Test results taken from article PMC11711097 (Nature, 2024).

How the values were obtained:
[1] = molecular target: Full-length mouse NINJ1(K45Q) (mouse, UniProt O70131, K45Q); assay: SPR
[2] = molecular target: the molecule itself; assay: cross-linking
[3] = molecular target: the molecule itself; assay: cryo-EM structure

B1: Nb538 (His-tagged, purified) (VHH)
VHH: EVQLVESGGGLVQPGGSLRLSCAASGFNVYSSSYYYVGWVRRAPGKGEELVARISPSYGYTYYADSVKGRFTISADTSKNTAYLQMNSLRAEDTAVYYCEVYIFGQYFESGQGTLVTVSS
For B1, the Kd [1] was 24 nM.

B2: Endogenous NINJ1 of mouse bone marrow-derived macrophages (natural protein)
chain: MESGTEEYELNGDLRPGSPGSPDALPPRWGLRNRPINVNHYANKKSAAESMLDIALLMANASQLKAVVEQGNDFAFFVPLVVLISISLVLQIGVGVLLIFLVKYDLNNPAKHAKLDFLNNLATGLVFIIVVVNIFITAFGVQKPVMDVAPRQ
In the case of B2, the “stoichiometry N” value [2] is reported as 2 subunits.

B3: Full-length mouse NINJ1(K45Q) (natural protein)
chain: MESGTEEYELNGDLRPGSPGSPDALPPRWGLRNRPINVNHYANKQSAAESMLDIALLMANASQLKAVVEQGNDFAFFVPLVVLISISLVLQIGVGVLLIFLVKYDLNNPAKHAKLDFLNNLATGLVFIIVVVNIFITAFGVQKPVMDVAPRQ
For B3, the “stoichiometry N” value [3] was 4 subunits.
